From patent US5731411, “Promotion of homologous DNA pairing by RecA-derived peptides” (The United States of America as represented by the …)

T1: FECO (RecA residues 193-212 peptide) (Escherichia coli, UniProt P0A7G8 SEQ:1-20)
T1 chain: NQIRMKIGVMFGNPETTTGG

T2: WT-14 (RecA residues 196-209 peptide) (Escherichia coli, UniProt P0A7G8)
T2 chain: RMKIGVMFGNPETT

B1: 57-mer ssDNA (ssDNA)
DNA: CTGTCTACTCTCGAGGTTAACCCGTGCGAATTCTACGATTGGTGCGGCCGGTATATC
B2: BS-S1 ssDNA (ssDNA)
DNA: GGCCGCTCTAGAACTAGTGGATCCCCCGGGCTGCAGGAATTCGATATCAAGCT

Legend:
[1] = biological target: T1, FECO (RecA residues 193-212 peptide); assay: CD, random coil to beta structure, pH 7.5; conditions: protein: synthetic; tags: synthetic peptide, HPLC purified
[2] = biological target: T2, WT-14 (RecA residues 196-209 peptide); assay: filter; peptide up to 100 uM, pH 8.3; no joint molecules; conditions: protein: synthetic; tags: synthetic peptide, HPLC purified; label: 5' 32P
[3] = biological target: T1, FECO (RecA residues 193-212 peptide); assay: filter; 10 mM MgCl2, pH 8.3, room temp; less tight without Mg; unstacks ssDNA (permanganate); joint molecules with homologous pBluescript but not pUC19 (Example 5); conditions: protein: synthetic; tags: synthetic peptide, HPLC purified; label: 5' 32P

Binder	binding result [1]	binding result [2]	binding result [3]
B1	binds	–	–
B2	–	no binding	binds
